Measured values from patent US20250361322A1 (ICONIC THERAPEUTICS, published 2025).
Where two headings read alike, the source gives them in different places.

Assays:
[1] = target: T1, rTF (rat TF) construct on HEK293 cells (rat, UniProt P42533 29-252); assay: flow cytometry (live cell staining), antibody titration 1:3 from 250 nM on HEK293 cells transfected with rTF
T1 construct: not shown: transmembrane/cytoplasmic anchor of the cell-surface construct

[2] = target: T2, human Tissue Factor on human TF-positive cells (human, UniProt P13726 33-295); assay: flow cytometry, antibody titration on MDA-MB-231 cells (human TF), 4-parameter fit of MFI
T2 construct: also called hTF; CD142
Protocol: (§1) After 2 washes, dead cells were labeled with TO-PRO-3 Iodide (ThermoFisher Scientific) and samples were analyzed on a CytoFLEX flow cytometer (Beckman Coulter, Brea, CA, USA) or Novocyte flow cytometer (ACEA Biosciences, San Diego, CA, USA). The median fluorescence intensities (MFIs) at each dilution were plotted and cell EC₅₀'s were derived using a 4-parameter binding model in Prism (GraphPad, La Jolla, CA, USA).

[3] = target: T2, human Tissue Factor on human …; assay: competition flow cytometry on MDA-MB-231 cells: unlabeled antibody titration first, then 20 nM 43D7-Alexa488 as the competitor
Protocol: After another 1 hr incubation on ice, cells were washed, stained with a viability dye, and analyzed by flow cytometry. The Alexa488 fluorescence data from viable cells was summarized using median fluorescence intensity.

[4] = target: T2, human Tissue Factor on human …; assay: flow cytometry, antibody titration on HCT-116 cells (endogenous human TF), 4-parameter fit of MFI
Protocol: as §1

[5] = target: T2, human Tissue Factor on human …; assay: competition flow cytometry on MDA-MB-231 cells: unlabeled antibody titration first, then 20 nM 25A3-Alexa488 as the competitor
[6] = target: T3, cynomolgus monkey TF ECD-His6 (cynomolgus monkey (Macaca fascicularis)); assay: BLI (ForteBio Octet)
T3 construct: Expi293-derived; also called TF-His; cTF
T3 chain: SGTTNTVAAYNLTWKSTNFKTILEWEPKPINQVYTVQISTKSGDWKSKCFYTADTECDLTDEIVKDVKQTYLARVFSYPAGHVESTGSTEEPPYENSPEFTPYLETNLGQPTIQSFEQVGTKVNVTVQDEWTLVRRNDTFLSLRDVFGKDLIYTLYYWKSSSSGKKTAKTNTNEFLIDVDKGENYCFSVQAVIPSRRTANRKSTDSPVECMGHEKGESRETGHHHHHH
Protocol: (§2) Kinetic measurements for the anti-TF antibodies were conducted on an Octet QK384 (Pall ForteBio, Fremont, CA, USA) or a Biacore (GE Healthcare Bio-Sciences).
(§3) Briefly, ForteBio affinity measurements were performed by loading IgGs on-line onto AHC sensors. Sensors were equilibrated off-line in assay buffer for 30 min and then monitored on-line for 60 seconds for baseline establishment. Sensors with loaded IgGs were exposed to 100 nM antigen (human, cynomolgus, or mouse TF) for 3 min, afterwards they were transferred to assay buffer for 3 min for off-rate measurement. Alternatively, binding measurements were obtained by loading biotinylated TF monomer on SA sensors followed by exposure to 100 nM antibody Fab in solution. Kinetic data was analyzed and fitted using a 1:1 Langmuir binding model and the KD was calculated by dividing the koff by the kₒₙ.

mouse TF ECD-His6 = target: T4, mouse TF ECD-His6 (mouse, UniProt P20352 29-251); assay: BLI (ForteBio Octet)
T4 construct: Expi293-derived; also called TF-His; mTF
Protocol: as §2, §3

human TF ECD-His6 [7] = target: T5, human TF ECD-His6 (human, UniProt P13726 33-251); assay: BLI (ForteBio Octet)
T5 construct: Expi293-derived; Biacore used TF-His; also called TF-His; hTF
Protocol: as §2, §3

[8] = target: T6, full-length mouse TF with a C-terminal FLAG tag on Flp-In-CHO cells (mouse, UniProt P20352 29-294); assay: flow cytometry on CHO cells expressing mouse TF, MFI at 250 nM antibody
T6 construct: also called CHO-mTF; mouse TF-positive CHO cells
Protocol: as §1

[9] = target: T2, human Tissue Factor on human …; assay: competition flow cytometry on MDA-MB-231 cells: unlabeled antibody titration first, then 20 nM 25A3-Alexa488 as the competitor; remark: listed apart in the source
[10] = target: T2, human Tissue Factor on human …; assay: flow cytometry, titration of unconjugated antibody on HCT-116 cells (human TF), 4-parameter fit of MFI
[11] = target: T3, cynomolgus monkey TF ECD-His6; assay: SPR (Biacore), TF-His over coupled antibody
human TF ECD-His6 [12] = target: T5, human TF ECD-His6; assay: SPR (Biacore), TF-His over coupled antibody
[13] = target: T7, hTF_N171H_T197K construct on HEK293 cells (human, UniProt P13726 33-251); assay: live cell staining, HEK293 cells
T7 construct: The entry already carries N171H and T197K; not shown: transmembrane/cytoplasmic anchor of the cell-surface construct
T7 chain: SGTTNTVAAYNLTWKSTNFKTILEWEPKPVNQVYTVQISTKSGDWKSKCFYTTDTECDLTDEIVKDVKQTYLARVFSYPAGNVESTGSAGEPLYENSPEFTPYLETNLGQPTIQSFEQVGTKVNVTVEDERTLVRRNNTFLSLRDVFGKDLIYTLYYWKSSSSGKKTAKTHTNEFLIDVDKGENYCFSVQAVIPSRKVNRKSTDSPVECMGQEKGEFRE

[14] = target: T2, human Tissue Factor on human …; assay: flow cytometry, antibody titration on A431 cells (human TF), 4-parameter fit of MFI
Protocol: as §1

[15] = target: T8, Macaca mulatta TF on RF/6A cells (Macaca mulatta (protein sequence stated …, UniProt P13726 33-294 (human entry))); assay: flow cytometry, IgG1 titrated on TF-positive Macaca mulatta RF/6A cells, 4-parameter fit
T8 construct: Endogenous TF of the RF/6A cell line; also called TF-positive Macaca mulatta RF/6A cells; cynomolgus TF
T8 chain: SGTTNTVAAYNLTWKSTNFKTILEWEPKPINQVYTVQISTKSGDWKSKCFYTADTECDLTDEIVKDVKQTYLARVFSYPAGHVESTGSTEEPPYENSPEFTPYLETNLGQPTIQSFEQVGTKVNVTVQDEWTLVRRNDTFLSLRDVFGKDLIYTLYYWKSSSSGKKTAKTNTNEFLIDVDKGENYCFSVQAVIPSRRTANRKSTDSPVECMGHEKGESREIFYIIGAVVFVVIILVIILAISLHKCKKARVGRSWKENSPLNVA
Protocol: as §1

Expi293-derived TF-His = target: T9, Expi293-derived TF-His (human (Example 17 does not restate the …, UniProt P13726 33-251)); assay: protein ELISA, plate coated with Expi293-derived TF-His, antibody titrated, HRP secondary, luminescence; Expi293-derived TF, not E. coli-derived
T9 construct: Glycosylated TF ECD-His6 from Expi293 cells; also called Expi293-derived TF protein; TF ECD-His6
Protocol: (§4) Plates coated with Expi293- or E. coli-derived TF-His were incubated with increasing concentrations of antibodies.

E. coli-derived TF = target: T10, E. coli-derived TF (human (Example 17 does not restate the …, UniProt P13726 33-251)); assay: protein ELISA, plate coated with E. coli-derived TF-His, antibody titrated, HRP secondary, luminescence
T10 construct: also called E. coli-derived TF-His; E. coli-derived TF protein
Protocol: as §4

[16] = target: T11, r141-194_h chimeric rat-human TF construct on HEK293 cells (rat with human segment, UniProt P42533 29-252); assay: flow cytometry (live cell staining), antibody titration 1:3 from 250 nM on HEK293 cells transfected with r141-194_h
T11 construct: not shown: transmembrane/cytoplasmic anchor of the cell-surface construct

h108-219_r = target: T12, h108-219_r (human/rat chimera); assay: live cell staining, flow cytometry, transfected HEK293
T12 chain: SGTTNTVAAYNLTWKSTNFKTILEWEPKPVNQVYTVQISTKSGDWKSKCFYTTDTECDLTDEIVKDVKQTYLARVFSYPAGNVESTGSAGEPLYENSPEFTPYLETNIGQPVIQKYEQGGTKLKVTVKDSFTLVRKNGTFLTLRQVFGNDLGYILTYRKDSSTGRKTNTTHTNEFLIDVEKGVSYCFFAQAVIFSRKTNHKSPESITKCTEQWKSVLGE
Protocol: (§5) To establish binding of the anti-human TF antibodies to the various TF constructs, HEK293 cells were transfected with a DNA plasmid that co-expresses the TF construct and a green fluorescent protein marker. […] Upon acquisition of 80,000 live events on a flow cytometer, live cells marked with the fluorescent marker were analyzed for the degree of staining by the anti-TF antibody.

h1-77_r = target: T13, h1-77_r (human/rat chimera); assay: as above
T13 construct: Human TF ECD with residues 1-77 replaced by rat segment
Protocol: as §5

rTF (rat TF) [17] = target: T14, rTF (rat TF) (rat, UniProt P42533 29-252); assay: as above
Protocol: as §5

h1-107_r = target: T15, h1-107_r (human/rat chimera); assay: as above
T15 chain: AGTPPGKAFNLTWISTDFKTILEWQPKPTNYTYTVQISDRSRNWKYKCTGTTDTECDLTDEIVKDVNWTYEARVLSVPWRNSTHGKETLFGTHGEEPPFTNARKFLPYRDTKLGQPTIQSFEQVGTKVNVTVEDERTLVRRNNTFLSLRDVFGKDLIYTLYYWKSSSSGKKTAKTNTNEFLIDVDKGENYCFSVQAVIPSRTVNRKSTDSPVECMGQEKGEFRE
Protocol: as §5

h159-219_r = h159-219_r (human/rat chimera); assay: as above
Protocol: as §5

r141-194_h = r141-194_h (rat/human chimera, UniProt P42533 29-252); assay: as above
Protocol: as §5

hTF_N171H_T197K = target: T16, hTF_N171H_T197K (human, UniProt P13726 33-251); assay: as above
T16 chain: T7 chain
Protocol: as §5

[18] = target: T17, hTF (human Tissue Factor construct) (human, UniProt P13726 33-251); assay: as above
T17 construct: also called human TF
Protocol: as §5

rTF (rat TF) [19] = target: T14, rTF (rat TF); assay: as above; remark: listed apart in the source
Protocol: as §5

B1: 25A3 (antibody, human IgG1, V domains shown)
VH: QVQLVQSGAEVKKPGASVKVSCKASGYTFDVYGISWVRQAPGQGLEWMGWIAPYSGNTNYAQKLQGRVTMTTDTSTSTAYMELRSLRSDDTAVYYCARDAGTYSPFGYGMDVWGQGTTVTVSS
VL: DIQMTQSPSTLSASVGDRVTITCQASQSINNWLAWYQQKPGKAPKLLIYKAYNLESGVPSRFSGSGSGTEFTLTISSLQPDDFATYYCQLFQSLPPFTFGGGTKVEIK
notes: Human IgG1; also called antibody designated 25A3
With B1 the binding result [1] was “no binding (tested: 250 nM)”, the EC50 [2] was 0.17 nM and the IC50 [3] was 0.84 nM. It also gave an EC50 [4] of 0.077 nM, an IC50 [5] of 1.13 nM and a Kd [6] of 1.36 nM. For the same binder, the Kd (mouse TF ECD-His6) was 131 nM, the Kd (human TF ECD-His6 [7]) was 1.67 nM and the “MFI at 250 nM” value [8] was 5.8e+06. The IC50 [9] was 1.03 nM, the EC50 [10] was 0.16 nM and the Kd [11] was 0.21 nM. For the same binder, the Kd (human TF ECD-His6 [12]) was 0.36 nM, the binding result [13] was “no binding (tested: 15 ug/ml (100 nM); below 50% of hTF)” and the EC50 [14] was 0.5 nM.

B2: 1F (antibody, human IgG1, V domains shown)
VH: EVQLLESGGGLVQPGGSLRLSCAASGFTFSDYAMGWVRQAPGKGLEWVSTISGSGGLTYYADSVKGRFTISRDNSKNTLYLQMNSLRAEDTAVYYCAKAPYGYYMDVWGKGTTVTVSS
VL: not shown
notes: Human IgG1; also called antibody designated 1F
For B2, the EC50 [15] was 0.17 nM, the EC50 (Expi293-derived TF-His) was 0.41 nM and the EC50 (E. coli-derived TF) was 0.32 nM.

B3: 10H10 (M1593) (antibody, V domains shown)
VH: EVQLVQSGAEVKKPGESLRISCKGSGYTFAPYWIEWVRQMPGKGLEWMGDILPGTGFTTYSPSFQGHVTISADKSISTAYLQWSSLKASDTAMYYCARSGYYGNSGFAYWGQGTLVTVSS
VL: DIVMTQTPLSLPVTPGEPASISCKSSQSLLSSGNQKNYLTWYLQKPGQSPQLLIYWASTRESGVPDRFSGSGSGTDFTLKISRVEAEDVGVYYCQNDYTYPLTFGQGTKLEIK
notes: also called anti-TF M1593
B3: no binding (tested: 250 nM) [1]; no binding (tested: 250 nM) [16].

B4: 5G9 (humanized TF8-5G9, CNTO 860) (antibody, V domains shown)
VH: QVQLVESGGGVVQPGRSLRLSCKASGFNIKDYYMHWVRQAPGKGLEWIGLIDPENGNTIYDPKFQGRFTISADNSKNTLFLQMDSLRPEDTAVYYCARDNSYYFDYWGQGTPVTVSS
VL: DIQMTQSPSSLSASVGDRVTITCKASQDIRKYLNWYQQKPGKAPKLLIYYATSLADGVPSRFSGSGSGTDYTFTISSLQPEDIATYYCLQHGESPYTFGQGTKLEIT
notes: Previously described anti-TF antibody; detected with anti-human IgG-Fc; also called h5G9
In the case of B4, the “percent antibody binding to TF construct relative to hTF” value (h108-219_r) is reported as 0%.

B5: 39A (antibody, V domains shown)
VH: QVQLVQSGAEVKKPGSSVKVSCKASGGTFSSNAIGWVRQAPGQGLEWMGSIIPIIGFANYAQKFQGRVTITADESTSTAYMELSSLRSEDTAVYYCARDSGYYYGASSFGMDVWGQGTTVTVSS
VL: EIVMTQSPATLSVSPGERATLSCRASQSVSSNLAWYQQKPGQAPRLLIYGASTRATGIPARFSGSGSGTEFTLTISSLQSEDFAVYYCEQYNNLPLTFGGGTKVEIK
notes: Human IgG (detected with anti-human IgG-Fc)
For B5, the “percent antibody binding to TF construct relative to hTF” value (h1-77_r) was 0%, the “percent antibody binding to TF construct relative to hTF” value (rTF (rat TF) [17]) was 0% and the “percent antibody binding to TF construct relative to hTF” value (h1-107_r) was 0%. For the same binder, the “percent antibody binding to TF construct relative to hTF” value (h159-219_r) was 141%, the “percent antibody binding to TF construct relative to hTF” value (r141-194_h) was 0% and the “percent antibody binding to TF construct relative to hTF” value (hTF_N171H_T197K) was 94%. The “percent antibody binding to TF construct relative to hTF” value [18] was 100% and the “percent antibody binding to TF construct relative to hTF” value (rTF (rat TF) [19]) was 0%.
